Experimental data: patent US6326464

Legend:
Assay in all cases: cell_activity
Conditions in all cases: H358 cells, 50 ng plasmid
[1] = system: V-325 (VP16-75-325-lz) (Homo sapiens / herpes simplex virus chimera)
[2] = system: V-336 (VP16-75-336-lz) (Homo sapiens / herpes simplex virus chimera)
[3] = target: wild-type p53 (Homo sapiens) (UniProt P04637)
wild-type p53 (Homo sapiens), sequence (P04637 whole entry): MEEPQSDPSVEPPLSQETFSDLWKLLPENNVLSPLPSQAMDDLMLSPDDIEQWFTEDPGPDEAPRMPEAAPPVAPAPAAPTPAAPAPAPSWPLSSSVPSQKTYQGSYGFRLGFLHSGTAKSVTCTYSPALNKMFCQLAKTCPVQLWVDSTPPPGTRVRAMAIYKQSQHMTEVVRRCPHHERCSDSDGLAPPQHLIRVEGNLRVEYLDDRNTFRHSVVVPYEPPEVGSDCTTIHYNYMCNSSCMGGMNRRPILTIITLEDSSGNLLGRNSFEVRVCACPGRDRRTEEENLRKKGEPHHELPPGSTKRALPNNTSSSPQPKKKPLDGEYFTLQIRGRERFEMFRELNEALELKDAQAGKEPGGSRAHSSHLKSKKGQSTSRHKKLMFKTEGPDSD

p53RE consensus CAT reporter
activity (relative CAT activity (vector=1)) [1]: 25
activity (relative CAT activity (vector=1)) [2]: 16
activity (relative CAT activity (vector=1)) [3]: 6
